This data set is described as follows: soluble on expression in E. coli; label from the status in PepcDB or PDB records.
As to “MQFNYDVIVVGAGHAGCEAAAAAAKLGSQVLLITPDMNKIAQMSCNPAVGGIAKGQIVREIDALGGRMGIVTDATAIQFRMLNRSKGPAMWSPRAQSDRMRFMEAWRDIVEHEPNLYMWQDSVRCLSIRQGAVAGVVTALGVEFQARTVVLTTGTFLGGVMHFGERMIEGGRIAEPAFHGITEQLRDLGFRTDRMKTGTPARIDGRSIDFSLTTEQSGEEDHHRFSYMDTPRRVLRQRSCYALYTNPECHEILSKGLDRSPLYNGQIQSIGPRYCPSIETKIVTFADKEMHQLFLEPEGETSNEFYLNGFSSSLPLEIQLEALKAIPALRHVHIYRPGYAIEYDFFDPTQLRHTLETKPVKGLFFAGQINGTTGYEEAAGQGLIAGINAHLHCHGAGEFTLGRDEAYIGVLIDDLVSKGVDEPYRMFTSRAEYRILLRQDDADMRLTPKAEAIGLADSRRSELLREKQVFRDKLIDFTHKFSLKPDLINPHLESAGHLPLKQGIKLYDLLLRPQIGMNEVCSMVPSLQRIVEEIPASRREEIVEAAEILIKYDGYIKRERALADKINRLESIRLPQHVDYMQMQSLSTEARQKLTSIRPETIAQASRIPGVSPHDVSILLVLCGR”, the “soluble on expression in E. coli” value was “not soluble”. “MQFQRARSDKQKNIRMSEIVNATINLYESLQYDKITLALIAKQLSFSRANLYKYVSTKEEIFLLIISGDIENWSKEVVKFFDKYDALSAEEFCKLWSELLYRHKRIIELFCILNTIIARNVSAEKLAAFKKQIHKDFTRTKKVVKRFFPFMSKEQLKFFIEYQMKYAVGVYPATIINDVQKKASELSGIPSNVKDFESSFSKFLMVILNGIEITI”: the “soluble on expression in E. coli” value is “not soluble”. Turning to “MQFSKMHGLGNDFMVVDAVTQNVYFSPELIRRLADRHTGVGFDQMLVVEPPYDPELDFHYRIFNADGSEVSQCGNGARCFARFVRLKGLTNKREISVSTQTGRMILSVTEDEQVCVNMGEPDFEPQTVPFRAAKAEKTYILRAAEHTVLCGVVSMGNPHCVMQVDDVSVANVALLGPVLENHERFPERANIGFMQVVSRDHIRLRVYERGAGETQACGSGACAAVAVGVVQDLLNENVHVELPGGSLHIRWQGPGHPLYMTGPATHVYDGFIHL”, the “soluble on expression in E. coli” value is “not soluble”. As for “MQGKDNYQEQQEINSTDEEGMIFQLADTTIQACNAAAERIIGYKNEQILGKTPFKPPWQIVHEDGTIFTPETVPPIVALQTGKPCKNVVMGLYQPTGQLVWLLLNSQPLFQTNKSTPYAVVTTFTDFTKVKCRQSRSDACITNNKKLIVTWNQDQAVEISPNTDKQKLNQPVAEPISDDCTKAFLSMQNHILELIATGNSLSEILEKLAQSIEAQLAEVFCSIMLLNDTGTKLYPGVSSSLPEKYIQELKNGVPVGADVGSCGTSAYTKQTVIVSDIASDHKWVKYRDLTLTNNLKACWSTPILDSQGHVLGTFALYYPTVRIPQKSDLQLIERASHLAGVAIERQRWQLALQQSEYQLRLMTETIPQQVWTAQPNGLVDYYNQRWCDFTGKTQEQLKTESWEQIIHPEDLPKVEELWAKAVQTGSDYEVETRMLSGSGEYHWILGQARPLRNQQGQIVKWYGTNTDITDHIQAREALRESELNFRTLADTMPQMIWTAKGDGWLEYCNQRWLDYTGMTLEETQGWGWQPVLHPDDAQICIDIWSESVRTGQNYQIEYRLRRARDGQYRWHLGRAFPLRNQKGQIIKWFGSCTDIDDHKRSEEALRNALQEKQAAYEAAETANRVKDEFLAILSHELRTPLNPILGWSQLLKTGKLDKDKTDEALKSIERNAKLQVDLIDDLLDVSRILRGKLTLNVTTVNLADIISAALETMSLAASVKQIAVQTLIEPNIGKVRGDPARLQQIVWNLLSNAIKFTPQGGEVVVQLEQIGSMAHIIVSDQGKGINRKFLPHIFEHFRQEDGSTTRKFGGLGLGLAIVRHLVELHGGTVEADSPGEGQGTTLKVILPLISSLPVTVTNGQFEDVALSLKGIKILVVDDDVDSLAFVKVVLELYEATVTTAASAPEALQIGVQLKPDVLISDIGMPEMDGYELLRRMRALSSDLGGDIPAVSKAIPKAIALTAFAGELDEQQAMAAGFQIHIPKPVEPEALAAAVAQVLKINV”, the “soluble on expression in E. coli” value is “not soluble”.

For the sequence “MQHLEAVRNILGDVLNLGERKHTLTASSVLLGNIPELDSMAVVNVITALEEYFDFSVDDDEISAQTFETLGSLALFVEHKLSH”, the “soluble on expression in E. coli” value is on record as “soluble”. Regarding “MQIFRDVSKLLVERVDPKILNLFRLLGKFGDEVNMPVYVVGGFVRDLLLGIKNLDIDIVVEGNALEFAEYAKRFLPGKLVKHDKFMTASLFLKGGLRIDIATARLEYYESPAKLPDVEMSTIKKDLYRRDFTINAMAIKLNPKDFGLLIDFFGGYRDLKEGVIRVLHTLSFVDDPTRILRAIRFEQRFDFRIEETTERLLKQAVEEGYLERTTGPRLRQELEKILEEKNPLKSIRRMAQFDVIKHLFPKTYYTPSMDEKMENLFRNIPWVEENFGEVDRFYAVLHVFLEFYDDESWKEVRDRYSLRRNLINEIRHVEKSAPALLEMLSERVPASFVYPLVKGVSNETICHFLAYLSGEKEGLFKSYLLKIKNTKLEKINGEYLIRKGITSGKIIGEVLEKILMKKLDGDTRDEEEILEEVLASLETEGKLAAALEHHHHHH”, the “soluble on expression in E. coli” value is given as “soluble”. The value for “MQLDVYGYVVETLYLAHQSGVARCGDTAVLHQRLVEHLAERWQMPDEGIWEVRGERRHFVHSKVMAWAVVDRTIRLVEAGALDAGLCALMELREAIRHEVCTRGFEP” was “not soluble”; that for “MQLNKVLKGLMLALPVLAVAACSSNKSANNDQSGMGAGTGTENGSNLSSEEQARLQMQELQKNNIVYFGFDKYDIGSDFAQMLDAHAAFLRSNPSDKVVVEGHADERGTPEYNIALGERRASAVKMYLQGKGVSADQISIVSYGKEKPAVLGHDEAAFAKNRRAVLVY” was “not soluble”; that for “MQNFTLHTPTKVLFGTGQIAQLTQEIPADARILITYGGGSIKQNGVLDQVHQALKGFDFLEFGGIEPNPTYETLMKAVELCRTEGINFLLAVGGGSVLDGTKFIAAAVNYPQDPWHILETTGRDITEALPMGSVLTLPATGSEANNGAVISRRSTGDKQHFFSPHVQPLFAVLDPVVTYTLPPRQVANGVVDAFVHTIEQYLTYPVDAKVQDRFAEGLLLTLIEEGPKALKDPENYNVRANIMWSATMALNGLIGAGVPQDWATHMLGHELTARHGLDHAQTLAVVLPALLVAKKQQKRAKLLQYAERVWGLREGSEDQRIDAAIEATRHFFESLGVATRLSAYKLDGSSIPDLIKKLEEHGMTKLGEHSDITLADSKRIYEAAV” was “not soluble”.

Turning to “MQNMFDGVQLFVEVVEAGGFAKAGKRLSLTRSTIGKAIARLEMRLGVQLFQRTTRVQSLTEDGQQYYERCLRAIKELRAGEAMLEQGRREVAGRLHVSLPVLFGRQCVAPILRTYAREHPQLELELNFSDHHVDLIADGFDLAVRNGPLGNGTTLRARRLGNQRKILCASPTYLAARGKPHTLADLADHDLLTYCRNDRNMAWTLPDATGALVDIPITSRLRCNDLEVIADTAVDGMGVAWLPYWLLMERMQRGELIGIWGDRPSAVIECHVVWPAAQHVPLRSRLAINLLAAELPKYLEA”, the “soluble on expression in E. coli” value is given as “not soluble”. For “MQNNNEFKIGNRSVGYNHEPLIICEIGINHEGSLKTAFEMVDAAYNAGAEVVKHQTHIVEDEMSDEAKQVIPGNADVSIYEIMERCALNEEDEIKLKEYVESKGMIFISTLFSRAAALRLQRMDIPAYKIGSGECNNYPLIKLVASFGKPIILSTGMNSIESIKKSVEIIREAGVPYALLHCTNIYPTPYEDVRLGGMNDLSEAFPDAIIGLSDHTLDNYACLGAVALGGSILERHFTDRMDRPGPDIVCSMNPDTFKELKQGAHALKLARGGKKDTIIAGEKPTKDFAFASVVADKDIKKGELLSGDNLWVKRPGNGDFSVNEYETLFGKVAACNIRKGAQIKKTDIE”, the “soluble on expression in E. coli” value is reported as “soluble”.

As to “MQPLFTQERRIFHKKLLDGNILATNNRGVVSNADGSNTRSFNIAKGIADLLHSETVSERLPGQTSGNAFEAICSEFVQSAFEKLQHIRPGDWNVKQVGSRNRLEIARYQQYAHLTALAKAAEENPELAAALGSDYTITPDIIVTRNLIADAEINRNEFLVDENIATYASLRAGNGNMPLLHASISCKWTIRSDRAQNARSEGLNLVRNRKGRLPHIVVVTAEPTPSRISSIALGTGEIDCVYHFALYELEQILQSLNYEDALDLFYIMVNGKRLKDISDLPLDLAV”, the “soluble on expression in E. coli” value is reported as “soluble”.

Turning to “MQPVTKNGESMNKTALLLTVVGAVLLTGCARQENEYTVKEYTSMANPASVYCVEQGGQLEMVTENEQRVTYCVTKDGEKIEQWEYFRQNHDQQ”, the “soluble on expression in E. coli” value is “not soluble”. For “MQQNTSLYDSLNVTAAASTSEIKKAYRNAALKYHPDKNNHTEESKRKFQEICQAYEILKDNRLRALYDQYGTTDEVLIQEQQAQAQRQQAGPFSSSSNFDTEAMSFPDLSPGDLFAQFFNSSATPSSNGSKSSFNFSFNNSSTPSFSFVNGSGVNNLYSSSAKYNSNDEDHHLDRGPDIKHNLKCTLKELYMGKTAKLGLNRTRICSVCDGHGGLKKCTCKTCKGQGIQTQTRRMGPLVQSWSQTCADCGGAGVFVKNKDICQQCQGLGFIKERKILQVTVQPGSCHNQLIVLTGEGDEVISTKGGGHEKVIPGDVVITILRLKDPNFQVINYSNLICKKCKIDFMTSLCGGVVYIEGHPSGKLIKLDIIPGEILKPGCFKTVEDMGMPKFINGVRSGFGHLYVKFDVTYPERLEPENAKKIQNILANDKYIKAERSTMETADSDCYCDLEKSYDSVEEHVLSSFEAPNLNNEVIEDDDLGDLINERDSRKRNNRRFDESNINNNNETKRNKYSSPVSGFYDHDINGY”, the “soluble on expression in E. coli” value was “not soluble”. Take “MQREDILGEALKLLETQGIADTTLEMVAERVNRPLDTLQRFWPDKEAILYDALRYLSQQVDIWRRQLLLDETLSAEQKLLARYSALSECVSNNRYPGCLFIAACTFYPDPTHPIHQLANQQKRAAHDFTHELLTTLEIDDPAMVARQMELVLEGCLSRMLVNRSQADVDTAQRLAEDILRFAQCRQGGALT”: the “soluble on expression in E. coli” value was “soluble”.

For “MQRLSGLDASFLYLETSTQLLHVCGVIVLDVSTVPGGYTFAQLKAELGARTEAIPSFRRKLQDSKFNLDHPVWVEDTDFDIDRHCHRVALPAPGGRDELAELCGDIAGIPLDRARPLWEMWVIEGLEDGSVAVMSKMHHAGVDGITGANMMAQLCGLEPDAPRPGPDDSAESAGQASTLDIAVGGLLAVASRPAKLLRIVPQSLTLLPRWIGRARRGAAMPAPFTAPRTSLNGTLTSHRNLAFTQLDLEKVKTVKDAFDVKVNDVVLALCSGALRKYLQDRRELPDKSLVAIVPVSVHGKSDRPGTNQVSGMFTQLGTQIEDPAERLLAIGEHNSTSKEHNETLGASLLQDWSQFAGQAVFGTAMRLYSTLGLAERHPVVHNLVISNVPGPSVPLYFLGALIKAMYPLGPIFHGAGLNVTVMSLNGQLDVGLMSCPELAPHLWDLVDAFPAALDELVEAAGNRS”, the “soluble on expression in E. coli” value is “not soluble”.

For the sequence “MQSIGQVLTKASERLEERLAAVLAQYTPAYFRERIPELNELDATDEMIQKAIIQLMDRAKQIEECRGCTGFANCRRPPGQEGMVMHLTVENGHISSLHSMCDQFHAYHQEQRWQRLLALSGKAANDKNFTFDNFPDAQKKRHRKLCGYIYQFAQQFEPGGSDKGVYIYGPPGTGKTHLLLAMVNRLEERRVPVIFIRTDAIFRRMRGMLSAKESLDSLIEAYCTTPVLVIDEFAQEAGTEFTIDVMFEVVNARFANSLPTFATSNYAPDQVYEKAMRKHRLEEKVEAIRSRLNQMMKHAFMDGEDGRKKDRETF”, the “soluble on expression in E. coli” value is listed as “not soluble”. As for “MQSISNCPIGLVSKNTINSASTIAEWVACPWKYINVVGSGRYVSNKPDKITRYDLLKAAQEAEMQELLTRNDMKGRHKRNKKSKIALETIAEENSSTESLF”, the “soluble on expression in E. coli” value is listed as “not soluble”.
